Source: patent US10801027B2, “Inhibitors of SRSF1 to treat neurodegenerative disorders” (University of Sheffield, priority 2016, dated 2020)

Test system: N2A cells
Test: MTT cell proliferation assay
Type: cell-based, mouse
Details: G4C2×38 or C4G2×39 plasmids, 72 h
Experimental: Neuro-2a (N2A) cells were split into each well of a 24 well plate (30,000 cells/well). Each plate contained 4 wells with only media to serve as a blank and 4 wells/treatment. Cells were transfected for 72 hours with either 500 ng pcDNA 3.1, pcDNA 3.1/RAN-G4C2×15 RAN-G4C2×38-sense, RAN-C4G2×15 or RAN-C4G2×39-antisense; or 250 ng pcDNA6.2-GW/EmGFP-Control miR RNAi, pcDNA6.2-GW/EmGFP-mouse SRSF1 miR1+2 RNAi, p3×FLAG/SRSF1 (11-196), or p3×FLAG/SRSF1 (11-196)-m4 and 250 ng pcDNA 3.1, pcDNA 3.1/RAN-G4C2×38-sense or RAN-C4G2×39-antisense.
[…] Thiazolyl Blue Tetrazolum Bromide reagent (MTT) was added to each well and incubated in the dark at […] for 1 hour. Cells were subsequently lysed with equal volume MTT lysis buffer (20% SDS, 50% Dimethylformamide (DMF)) and incubated, shaking, at room temperature for 1 hour. Absorbance at 595 was then assessed with a PHERAstar FS (BMG Labtech). Experiments were performed in triplicate for each treatment. Absorbance data was analysed using PHERAstar MARS (BMG Labtech) and GraphPad Prism (version 6).

B1: SRSF1-m4: quadruple SRSF1 point mutant aa11-196, dominant negative, does not interact with TAP/NXF1 (protein)
chain: AGNNDCRIYVGNLPPDIRTKDIEDVFYKYGAIRDIDLKNRRGGPPFAFVEFEDPRDAEDAVYGRDGYDYDGYRLRVEFPASGAGTGRGGGGGGGGGAPRGRYGPPSAASENRVVVSGLPPSGSWQDLKDHMREAGDVCYADVYRDGTGVVEFVRKEDMTYAVRKLDNTKFRSHEGETAYIRVKVDG
modifications: left off: small tags and cut ends
neurotoxicity mediated by expression of the C9ORF72 repeat transcripts: suppress the neurotoxicity
